Molecular target: recombinant human CFD mutant 1 (R157A, R207A), His-tagged (human) (UniProt P00746)
Assay: ELISA

recombinant human CFD mutant 1 (R157A, R207A), His-tagged (human), sequence (P00746 26-253 R182A/R232A limits assumed): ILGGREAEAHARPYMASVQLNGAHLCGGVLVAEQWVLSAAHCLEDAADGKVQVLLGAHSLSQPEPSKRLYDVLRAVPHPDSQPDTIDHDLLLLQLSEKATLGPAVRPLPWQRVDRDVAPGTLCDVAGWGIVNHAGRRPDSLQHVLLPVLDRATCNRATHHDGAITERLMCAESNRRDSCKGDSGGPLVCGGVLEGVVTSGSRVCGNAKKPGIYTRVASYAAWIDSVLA

- Mut1 Binding (% wt): 13.6 % wt
B1: KCD119 (antibody, V domains shown)
VH: EVQLQQSGPELVKPGASVKISCKASGYTFTDYYTNWMRQRHGESLEWIGDINPNTGDTSYNQKFRVKATLTVDKSSGTAYMGLRSLTSEDSAVYYCTREGPSFAYWGQGTLVTVSA
VL: DVLMTQTPLSLPVSLGDQASISCRSSQTIVHSNGDTYLEWYLQKPGQSPNLLIYKVSNRFSGVPDRFSGSGSGTDFTLKISRVEAEDLGVYYCFQGSHVPPTFGGGTTLEIK

Reference: patent publication US20180334496A1
